# Source: article PMC6778148 (Nature Communications, 2019)
# Primed or numbered codes have the meaning given here. Ends that are not written are not given here. FITC′ = fluorescein isothiocyanate label; TTDS = PEG linker
# T1: fluorescein-labelled monovalent stargazin peptide
# T1 chain: {FITC′-TTDS}-DSLHANTANRRTTPV
# B1: biotinylated Xph18 [S63K]-(GGS)12-ETWV, from pbIG (designed binder)
# chain: SSVSSVPTKLEVVAATPTSLLISWDAHSRMAWVNYYRITYGETGGNSPVQEFTVPGSSSTATISGLKPGVDYTITVYANGGGFRRGMAPISINYRTLEGGSGGSGGSGGSGGSGGSGGSGGSGGSGGSGGSGGSGTETWV
# modifications: biotin on the AviTag (BirA)
# B2: SAP102 tandem PDZ domains 1 and 2 (SAP102-12), from pET-NO (domain or fragment, rat)
# chain: FKYEEIVLERGNSGLGFSIAGGIDNPHVPDDPGIFITKIIPGGAAAMDGRLGVNDCVLRVNEVDVSEVVHSRAVEALKEAGPVVRLVVRRRQPPPETIMEVNLLKGPKGLGFSIAGGIGNQHIPGDNSIYITKIIEGGAAQKDGRLQIGDRLLAVNNTNLQDVRHEEAVASLKNTSDMVYLKVAKPGSL
# notes: first two PDZ domains of rat SAP102, residues 145-333; also called NO-SAP102-12
# B3: biotinylated Xph20 [S63K]-(GGS)12-ETWV, from pbIG (designed binder)
# chain: SSVSSVPTKLEVVAATPTSLLISWDAVAKNVKVGYYRITYGETGGNSPVQEFTVPGSSSTATISGLKPGVDYTITVYANGVLSKMVLPISINYRTLEGGSGGSGGSGGSGGSGGSGGSGGSGGSGGSGGSGGSGTETWV
# modifications: biotin on the AviTag (BirA)
# notes: also called Xph20-ETWV; not shown: AviTag (biotin acceptor peptide), N-terminal, kept
# B4: PSD-95 PDZ domain 2 (PSD-95-2), as used for fluorescence polarisation (domain or fragment, rat)
# chain: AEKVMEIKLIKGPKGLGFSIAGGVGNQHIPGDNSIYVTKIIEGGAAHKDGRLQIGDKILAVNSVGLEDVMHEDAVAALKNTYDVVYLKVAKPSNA
# notes: also called PSD-95 second PDZ domain; source: E. coli, purified
# B5: biotinylated Xph15 [S63K]-(GGS)12-ETWV, from pbIG (designed binder)
# chain: SSVSSVPTKLEVVAATPTSLLISWDAGPRNVSYYRITYGETGGNSPVQEFTVPGSSSTATISGLKPGVDYTITVYASGHVSTLMTPISINYRTLEGGSGGSGGSGGSGGSGGSGGSGGSGGSGGSGGSGGSGTETWV
# modifications: biotin on the AviTag (BirA)
# Assays:
# Conditions in all cases: both partners purified
# [1] = target: T2, PSD-93 tandem PDZ domains 1 and 2 (PSD-93-12), from pET-NO (rat); test: SPR; Biacore T200, single cycle kinetics at higher analyte concentrations (up to 35 µM); biotinylated Xph15/18/20-ETWV captured (ligand), tandem PDZ domains as analyte; steady state analysis, one site binding (hyperbola)
# T2 construct: first two PDZ domains of rat PSD-93, residues 93-282; also called NO-PSD-93-12
# [2] = target: B5; test: as above
# [3] = target: B3; test: as above
# [4] = target: B1; test: as above
# [5] = target: T3, PSD-95 tandem PDZ domains 1 and 2 (PSD-95-12), from pET-NO (rat); test: SPR; Biacore T200, single cycle kinetics; biotinylated Xph-motif fusion captured on a CAP chip (ligand), tandem PDZ domains as analyte; 25 °C; PBS with 500 mM NaCl pH 7.4, 0.1% Tween 20; global 1:1 fit (kinetics analysis)
# T3 construct: first two PDZ domains of rat PSD-95, residues 61-249; also called NO-PSD-95-12; not shown: His8, N-terminal, kept
# [6] = target: T3, PSD-95 tandem PDZ domains 1 and 2 …; test: pull-down; competitive pull-down: streptavidin beads with 120 pmol biotinylated [Stg15]2, 180 pmol tandem PDZ domains, then 0-50 (100) equivalents of Xph20-ETWV or Xph0-ETWV; PBS with 500 mM NaCl pH 7.4, Tween 20, 0.5% BSA; SDS-PAGE, colloidal blue, densitometry; One site - Fit Ki
# [7] = target: T2, PSD-93 tandem PDZ domains 1 and 2 …; test: as above
# [8] = target: B2; test: as above
# [9] = target: T4, SAP97 tandem PDZ domains 1 and 2 (SAP97-12), from pET-NO (rat); test: as above
# T4 construct: first two PDZ domains of rat SAP97, residues 220-408; also called NO-SAP97-12; not shown: His8, N-terminal, kept
# [10] = target: B4; test: fluorescence polarisation; competitive titration: ETWV or stargazin monovalent peptide against the complex of 50 nM FITC monovalent stargazin peptide with 24 µM PSD-95-2
# [11] = target: B4; test: as above
# [12] = target: T1, fluorescein-labelled monovalent …; test: fluorescence polarisation; direct titration: 50 nM fluorescein-labelled stargazin ligand (divalent or monovalent) against increasing concentrations of PDZ domains; apparent KD
# T2 sequence (chain, as listed by the source): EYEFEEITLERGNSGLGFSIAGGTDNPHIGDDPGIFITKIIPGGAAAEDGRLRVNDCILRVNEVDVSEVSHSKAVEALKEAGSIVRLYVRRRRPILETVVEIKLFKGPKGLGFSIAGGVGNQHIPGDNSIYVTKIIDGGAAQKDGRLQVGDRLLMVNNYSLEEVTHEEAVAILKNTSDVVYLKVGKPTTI
binder,measurement,setting,value
B1,Kd,[1],3.2 µM
B2,Kd,[2],9.8 µM
same,Kd,[3],9.9 µM
same,Kd,[4],4.2 µM
B3,Kd,[5],0.089 nM
same,koff,[5],0.00052 s⁻¹
same,kon,[5],8.7e+06 M⁻¹ s⁻¹
same,Kd,[1],7.5 µM
"Xph20 [S63K]-(GGS)12-ETWV with N-terminal His10, from pET-IG (designed binder, also called Xph20-ETWV; pIG-Xph20-ETWV; not shown: His10, N-terminal, kept) SSVSSVPTKLEVVAATPTSLLISWDAVAKNVKVGYYRITYGETGGNSPVQEFTVPGSSSTATISGLKPGVDYTITVYANGVLSKMVLPISINYRTLEGGSGGSGGSGGSGGSGGSGGSGGSGGSGGSGGSGGSGTETWV",Ki,[6],0.0365 µM
same,Ki,[7],0.261 µM
same,Ki,[8],1.44 µM
same,Ki,[9],0.901 µM
Ac-DSLHANTANRRTTPV [acetylated monovalent stargazin peptide],Ki,[10],8.8 µM
same,Ki,[11],8.6 µM
B4,Kd,[12],16 µM
B5,Kd,[1],8.4 µM
